Source: patent US20050026233A1, “Methods of monitoring and modulating LKB1 activity and its downstream targets” (Medical Research Council, priority 2003, published 2005)

Key:
AMPK = test: Phosphorylation of T172 of AMPK by immunoblotting with anti-phosphothreonine 172 antibody; type: biochemical, mammalian; conditions: immunoblot
Procedure: (§1) The beads were removed by centrifugation, and proteins in the supernatant were analyzed by SDS-PAGE and autoradiography. Molecular size markers (kDa) are indicated. (C) Bacterially expressed AMPK (0.15 μg) was phosphorylated by GST-Tos3p and analysed by immunoblotting with anti-phosphothreonine 172 specific antibody (Cell Signalling Technologies). AMPK was also incubated with GST or partially purified rat liver AMPKK (Hawley, 1996).
Phosphorylation of T172 was determined by immunoblotting (FIG. 4E).
Bacterially expressed AMPK (α1β1γ1) was purified by chromatography using Ni-NTA agarose (Qiagen) as previously described (the purification is as in Neumann et al., 2003 Protein Expression and Purification, incorporated herein by reference). AMPK was incubated with 100 μM ATP, 5 mM MgCl2, 200 μM AMP and 1 mM DTT in 50 mM Hepes, pH 7.4 in the presence or absence of upstream kinase for 30 min at 30° C. Following brief centrifugation, the supernatant containing AMPK was removed and activity measured using the SAMS peptide assay (Davies et al., 1989). Phosphorylation of T172 was determined by Western blotting using an antibody that specifically recognizes phospho-threonine 172 within the α subunit of AMPK (Cell Signaling Technologies).

AMPK (α1β1γ1) = target: T1, AMPK (α1β1γ1) (Rattus norvegicus, UniProt P54645); test: Activation of bacterially expressed AMPK by upstream kinase, SAMS peptide assay; type: biochemical, mammalian; conditions: recombinant AMPK α1β1γ1, MgATP, 30 min at 30° C
T1 construct: made in house; host or cells: bacteria (E. coli per the title of Neumann 2003)
Procedure: FIG. 4. Tos3p and LKB1 phosphorylate and activate AMPK in vitro. (A) Bacterially expressed AMPK (α1β1γ1 (Neumann, 2003)) was incubated with MgATP and GST-kinase bound to glutathione-Sepharose for 30 min at 30° C. Following centrifugation to remove the resin, AMPK activity in the supernatant was measured using the SAMS peptide assay (Davies, 1989).
as §1, with “AMPK was also incubated with GST or partially purified rat liver AMPKK (Hawley, 1996).” left out
Recombinant AMPK (α1β1γ1) expressed in bacteria (Neumann, 2003) was incubated with each of the kinases and MgATP, and AMPK activity was determined using the SAMS peptide assay. […]
Following centrifugation to remove the resin, AMPK activity in the supernatant was measured using the SAMS peptide assay (Davies, 1989).
Bacterially expressed AMPK (α1β1γ1) was purified by chromatography using Ni-NTA agarose (Qiagen) as previously described (the purification is as in Neumann et al., 2003 Protein Expression and Purification, incorporated herein by reference). […] Following brief centrifugation, the supernatant containing AMPK was removed and activity measured using the SAMS peptide assay (Davies et al., 1989). […]

T1 sequence (P54645 13-559 limits assumed): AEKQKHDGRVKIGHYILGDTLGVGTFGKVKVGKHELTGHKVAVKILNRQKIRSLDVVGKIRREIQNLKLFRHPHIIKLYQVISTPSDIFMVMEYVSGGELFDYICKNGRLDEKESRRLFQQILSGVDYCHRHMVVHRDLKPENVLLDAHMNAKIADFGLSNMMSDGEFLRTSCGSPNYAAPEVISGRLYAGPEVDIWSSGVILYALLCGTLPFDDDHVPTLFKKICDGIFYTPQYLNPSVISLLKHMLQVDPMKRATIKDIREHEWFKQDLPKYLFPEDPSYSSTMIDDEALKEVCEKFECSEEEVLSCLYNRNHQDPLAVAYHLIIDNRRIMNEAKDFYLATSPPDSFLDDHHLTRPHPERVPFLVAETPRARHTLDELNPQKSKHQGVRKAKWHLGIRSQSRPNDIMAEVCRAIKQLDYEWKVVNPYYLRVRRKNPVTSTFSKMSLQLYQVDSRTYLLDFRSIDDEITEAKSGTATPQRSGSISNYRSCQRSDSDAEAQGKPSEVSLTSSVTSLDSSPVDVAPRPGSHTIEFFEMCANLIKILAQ
T1 sequence (P80386 whole entry partner): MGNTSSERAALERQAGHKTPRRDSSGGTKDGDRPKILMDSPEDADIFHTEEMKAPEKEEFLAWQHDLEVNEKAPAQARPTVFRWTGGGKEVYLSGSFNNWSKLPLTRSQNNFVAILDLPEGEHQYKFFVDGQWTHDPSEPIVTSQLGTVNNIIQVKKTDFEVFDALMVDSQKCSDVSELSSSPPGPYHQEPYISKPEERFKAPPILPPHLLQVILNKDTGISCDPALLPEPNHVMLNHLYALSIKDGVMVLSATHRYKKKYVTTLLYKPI
T1 sequence (P80385 whole entry partner): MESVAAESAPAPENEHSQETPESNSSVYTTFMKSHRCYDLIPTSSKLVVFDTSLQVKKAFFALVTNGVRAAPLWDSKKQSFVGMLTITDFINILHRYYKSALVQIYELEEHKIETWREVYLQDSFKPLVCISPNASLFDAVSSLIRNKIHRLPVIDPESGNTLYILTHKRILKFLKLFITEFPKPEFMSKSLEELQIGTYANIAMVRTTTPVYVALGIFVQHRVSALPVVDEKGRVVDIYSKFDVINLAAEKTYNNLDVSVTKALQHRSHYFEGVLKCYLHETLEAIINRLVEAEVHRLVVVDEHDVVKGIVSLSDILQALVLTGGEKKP
Chain of AMPK (P54645 13-559 limits assumed): as the sequence (P54645 13-559 limits assumed) above
Chain of AMPK (P80386 whole entry partner): as the sequence (P80386 whole entry partner) above
Chain of AMPK (P80385 whole entry partner): as the sequence (P80385 whole entry partner) above

B1: LKB1: FLAG-tagged full length wild-type mouse LKB1 tumor suppressor kinase purified from COS7 cell lysates (protein, UniProt Q9WTK7 1-436, looked up)
chain: MDVADPEPLGLFSEGELMSVGMDTFIHRIDSTEVIYQPRRKRAKLIGKYLMGDLLGEGSYGKVKEVLDSETLCRRAVKILKKKKLRRIPNGEANVKKEIQLLRRLRHRNVIQLVDVLYNEEKQKMYMVMEYCVCGMQEMLDSVPEKRFPVCQAHGYFRQLIDGLEYLHSQGIVHKDIKPGNLLLTTNGTLKISDLGVAEALHPFAVDDTCRTSQGSPAFQPPEIANGLDTFSGFKVDIWSAGVTLYNITTGLYPFEGDNIYKLFENIGRGDFTIPCDCGPPLSDLLRGMLEYEPAKRFSIRQIRQHSWFRKKHPLAEALVPIPPSPDTKDRWRSMTVVPYLEDLHGRAEEEEEEDLFDIEDGIIYTQDFTVPGQVLEEEVGQNGQSHSLPKAVCVNGTEPQLSSKVKPEGRPGTANPARKVCSSNKIRRLSACKQQ
modifications: full-length FLAG tag
notes: FLAG-tagged full length wild-type mouse LKB1 tumor suppressor kinase purified from COS7 cell lysates
B1 was tested, and the “Phosphorylation of AMPK on T172” value (AMPK) was “phosphorylated T172” and the “AMPK activity after incubation with upstream kinase” value (AMPK (α1β1γ1)) was “activated recombinant AMPK”.
